Data taken from publication PMC10514136, “Peptide-conjugated antimiRs improve myotonic dystrophy type 1 phenotypes by promoting endogenous MBNL1 expression” (Molecular Therapy. Nucleic Acids, 2023).
Where “and” joins values, the source holds several entries; their conditions need not be identical. Identical values can stand only once.

How the values were obtained:
Atp2a1 exon 22 = experiment: Alternative splicing of Atp2a1 exon 22 in muscle by RT-PCR (PSI, splice recovery); format: in vivo, mouse; conditions: HSALR mice, individual mice; for Percentage spliced-in (PSI) Atp2a1 Gast: 9.2 mg/kg (mean) i.v. x3, day 45, gastrocnemius; for Percentage spliced-in (PSI) Atp2a1 Quads: 9.2 mg/kg (mean) i.v. x3, day 45, quadriceps
Procedure: Total RNA from murine gastrocnemius and quadriceps muscle was isolated using the miRNeasy Mini Kit (QIAGEN, Hilden, Germany) according to the manufacturer’s instructions. One microgram of RNA was digested with DNase I (Invitrogen, Carlsbad, CA) and reverse transcribed with SuperScript II (Invitrogen) using random hexanucleotides. For subsequent PCR reactions, 20 ng of cDNA was used with GoTaq polymerase (Promega). Specific primers were used to analyze the alternative splicing of Nfix, Atp2a1, and Clcn1 in mouse samples (both muscles). Gapdh levels established the endogenous reference levels using 0.2 ng of cDNA. PCR products were separated on a 2% agarose gel and quantified using ImageJ software (NIH, Bethesda, MD). PSR index was defined as value%SI minus X¯%DSI , divided by X¯%DSI minus X¯%HSI (SI, splicing inclusion of each sample; DSI, disease splicing inclusion; HSI, healthy splicing inclusion). Overall, PSR indicates the amount in both muscles analyzed. Primer sequences and exons analyzed are available in Cerro-Herreros et al.[20] In the case of off-targets, interleukins, and muscle regeneration marker Mstn-1, primers sequences are available in Table S5. We used 1 ng of mouse tissue cDNA as a template for multiplex qPCR using the QuantiFast Probe PCR Kit reagent. Commercial TaqMan probes (QIAGEN) were used for mouse (Mbnl1 and Mbnl2; FAM-labeled probes) and reference (GAPDH; MAX-labeled probe) genes. Results were normalized to Gapdh endogenous gene expression.
We used homozygous transgenic HSA^LR (line 20 b) mice,[90] which were kindly provided by Dr Thornton (Rochester, NY) and were housed and bred in our animal facility. Experimental groups were FVB as healthy control and HSA^LR treated with a scrambled ON (SC) and PBS as negative controls, and HSA^LR mice treated with all six experimental CPP-PMOs. The mice were randomly allocated to the different treatments as follows: in each cage, each mouse was ear-marked as it was taken out, and each mouse was then assigned to a different treatment. […] Mice were sacrificed 45 days after the first injection and the tissues of interest were frozen in liquid nitrogen for the molecular and histological assays. All the mice used in this study ranged from 5 to 5.5 months of age and all were males.

[1] = ELISA determination of antimiR conjugate concentrations in tissues; format: in vivo, mouse; conditions: HSALR mice, 9.2 mg/kg (mean) i.v. x3, day 45; for CPP-PMO concentration (pM), Brain / CPP-PMO concentration (pM), Gastrocnemius / CPP-PMO concentration (pM), Heart / CPP-PMO concentration (pM), Kidney / CPP-PMO concentration (pM), Liver / CPP-PMO concentration (pM), Quadriceps: hybridization ELISA, background subtracted, individual mice; for CPP-PMO levels in tissues, in words: ELISA in kidney, liver, heart, quadriceps, gastrocnemius, brain
Procedure: Custom ELISA-based measurements of antimiR conjugate concentrations in brain, kidney, liver, heart, gastrocnemius, and quadriceps from treated HSA^LR mice were performed as described in Burki et al.,[89] using the following phosphorothioate probes: for miR-218 (5′ → 3′) [DIG] T∗T∗G∗T∗G∗C∗T∗TGATCTA∗A∗C∗C∗A∗T∗G∗T [BIO]; for miR-23b (5′ → 3′) [BIO] A∗T∗C∗A∗C∗A∗T∗TGCCAGG∗G∗A∗T∗T∗A∗C∗C [DiG] double-labeled with digoxigenin (DIG) and biotin (BIO). In all cases, a control sample was used to subtract the background (HSA^LR treated with PBS for 9b2 and 9b2-KC ONs; HSA^LR treated with Scramble for 6aKC ONs).
Mouse handling and experimental procedures followed the European law regarding laboratory animal care and experimentation (2003/65/C.E.) and were approved by Conselleria de Agricultura, Generalitat Valenciana (reference no. A1539961490857). We used homozygous transgenic HSA^LR (line 20 b) mice,[90] which were kindly provided by Dr Thornton (Rochester, NY) and were housed and bred in our animal facility. Experimental groups were FVB as healthy control and HSA^LR treated with a scrambled ON (SC) and PBS as negative controls, and HSA^LR mice treated with all six experimental CPP-PMOs. The mice were randomly allocated to the different treatments as follows: in each cage, each mouse was ear-marked as it was taken out, and each mouse was then assigned to a different treatment. Animals were injected biweekly intravenously with 150 μL of 1× PBS vehicle (controls; HSA^LR n = 7 and FVB n = 6) or 150 μL of a solution 1.875 mg/mL of the test CPP-PMOs corresponding to an average dose of 9.2 mg/kg (HSA^LR mice: SC n = 5, 9b2-218 n = 5, 9b2-23b n = 5, […] n = 5, […] n = 5, 6aKC-218 n = 5, and 6aKC-23b n = 5; see Table S6 for precise dosing). Mice were sacrificed 45 days after the first injection and the tissues of interest were frozen in liquid nitrogen for the molecular and histological assays. All the mice used in this study ranged from 5 to 5.5 months of age and all were males.

Row | Substance | Percentage spliced-in (PSI) Atp2a1 Gast (Atp2a1 exon 22) | Percentage spliced-in (PSI) Atp2a1 Quads (Atp2a1 exon 22) | CPP-PMO concentration (pM), Brain ([1]; 9.2 mg/kg) | CPP-PMO concentration (pM), Gastrocnemius ([1]; 9.2 mg/kg) | CPP-PMO concentration (pM), Heart ([1]; 9.2 mg/kg) | CPP-PMO concentration (pM), Kidney ([1]; 9.2 mg/kg) | CPP-PMO concentration (pM), Liver ([1]; 9.2 mg/kg) | CPP-PMO concentration (pM), Quadriceps ([1]; 9.2 mg/kg) | CPP-PMO concentration (pM), Brain [1] [pM] | CPP-PMO levels in tissues, in words ([1]; 9.2 mg/kg) | CPP-PMO levels in tissues, in words ([1]; listed as 9bKC-23b, 9.2 mg/kg)
1 | 6aKC-23b (antisense GGUAAUCCCUGGCAAUGUGAU; all phosphorodiamidate morpholino (PMO), T or U not given here; Pip6aKC peptide conjugated) | 14.22% and 26.08% and 16.73% and 17.96% and 14.74% | 29.81% and 23.38% and 17.76% and 24.03% and 33.87% | 0.83 pM and 9.49 pM and 11.43 pM and 25.59 pM and 4.02 pM | 93.86 pM and 1846.67 pM and 1209.72 pM and 472.26 pM and 199.58 pM | 1789.14 pM and 954.01 pM and 1508.23 pM and 1701.45 pM | 174345.23 pM and 110334.18 pM and 239168.85 pM and 16740.44 pM and 230939.23 pM | 4615.98 pM and 9209.58 pM and 10333.80 pM and 76.40 pM and 8623.71 pM | 72.30 pM and 93.71 pM and 165.91 pM and 28.58 pM and 1.72 pM |  |  | 
2 | 6aKC-218 (antisense ACAUGGUUAGAUCAAGCACAA; all phosphorodiamidate morpholino (PMO), T or U not given here; Pip6aKC peptide conjugated) | 14.70% and 11.51% and 10.78% and 31.20% and 12.62% | 21.08% and 26.96% and 31.16% and 9.84% and 26.51% |  | 3105.34 pM and 4126.64 pM | 220.63 pM and 8031.17 pM and 1672.26 pM | 807303.00 pM and 163863.50 pM and 282189.80 pM and 288519.00 pM and 763252.10 pM | 11820.61 pM and 1738.96 pM and 6547.20 pM and 6702.77 pM and 6452.86 pM | 56.37 pM and 3449.73 pM and 180.55 pM | 5.54 |  | 
3 | 9b2-23b (antisense GGUAAUCCCUGGCAAUGUGAU; all phosphorodiamidate morpholino (PMO), T or U not given here; Pip9b2 peptide conjugated) | 52.69% and 18.37% and 16.01% and 11.16% and 23.52% | 98.27% and 99.53% and 75.32% and 25.61% and 36.45% | 84.29 pM and 5.89 pM and 3.33 pM | 1173.05 pM and 672.99 pM and 96.96 pM | 458.72 pM and 70.02 pM and 540.73 pM | 417329.90 pM and 445161.13 pM and 596014.00 pM | 14705.39 pM and 13935.38 pM and 16995.86 pM | 664.60 pM and 444.65 pM and 237.24 pM |  |  | 
4 | 9b2-218 (antisense ACAUGGUUAGAUCAAGCACAA; all phosphorodiamidate morpholino (PMO), T or U not given here; Pip9b2 peptide conjugated) | 14.72% and 85.58% and 28.83% and 19.19% and 31.61% | 71.69% and 99.29% and 50.19% and 99.72% and 99.28% | 33.45 pM and 18.40 pM and 128.86 pM | 504.97 pM and 1534.26 pM and 428.98 pM | 1166.04 pM and 1995.51 pM and 1662.31 pM | 348919.38 pM and 303314.43 pM and 726042.17 pM | 16959.56 pM and 11986.59 pM and 23535.44 pM | 482.70 pM and 1344.85 pM and 1437.67 pM |  |  | 
5 | 9b2KC-23b (antisense GGUAAUCCCUGGCAAUGUGAU; all phosphorodiamidate morpholino (PMO), T or U not given here; Pip9b2KC peptide conjugated) | 11.22% and 31.29% and 33.92% and 10.51% and 42.67% | 37.72% and 33.71% and 28.53% and 24.15% and 39.24% | 17.78 pM and 0.01 pM and 0.87 pM | 3.32 pM and 2.34 pM and 0.01 pM | 256.63 pM and 2.97 pM and 105.40 pM | 404860.30 pM and 2213436.59 pM and 1672927.68 pM | 113314.70 pM and 27707.42 pM and 93287.30 pM | 127.62 pM and 457.08 pM and 0.82 pM |  | lower muscle levels | accumulation in liver was higher compared with our target tissues
6 | 9b2KC-218 (antisense ACAUGGUUAGAUCAAGCACAA; all phosphorodiamidate morpholino (PMO), T or U not given here; Pip9b2KC peptide conjugated) | 12.53% and 17.65% and 19.44% and 12.90% and 35.28% | 99.70% and 25.98% and 29.31% and 30.83% and 25.20% | 6.68 pM and 4.47 pM and 1017.83 pM | 726.85 pM and 1065.08 pM and 788.22 pM | 1724.69 pM and 184.66 pM and 108.67 pM | 1320762.73 pM and 1455590.50 pM and 1409556.69 pM | 12456.78 pM and 13391.72 pM and 5588.09 pM | 37.03 pM and 1605.97 pM and 358.44 pM |  |  | 
7 | TCTTACCTCAGTTACAATTTA-Pip9b2 [Scramble, reference compound] | 6.44% and 27.49% and 24.15% and 5.60% and 15.65% | 18.65% and 34.43% and 18.71% and 17.01% and 7.50% |  |  |  |  |  |  |  |  | 
